Consider two molecules from publication PMC9935549, “Mechanisms of the RNA helicases DDX42 and DDX46 in human U2 snRNP assembly” (Nature Communications, 2023).

This experiment concerns the target T1, SF3b core complex, 6xHis-tagged (SF3B1 454–1304, 6xHis-SF3B3, SF3B5, PHF5A) (human, UniProt O75533 454-1304; Q15393 1-1217; Q9BWJ5 1-86; Q7RTV0 1-110).
T1 construct: SF3B1, human, residues 454-1304; SF3B3, human, full-length cDNA; SF3B5, human, full-length cDNA; PHF5A, human, full-length cDNA; the 6xHis tag replaces the N-terminal Twin-Strep tag of SF3B3, so it is probably N-terminal; also called SF3b core (6xHis-tagged); source: HEK293F, co-transfected, purified; prepared as the SF3b core except that the Strep-tag on SF3B3 was replaced by a 6xHis tag; …
Put plainly: BLI; 6xHis-tagged SF3b core (20 µg/mL) captured on Ni-NTA biosensors; Flag-DDX42 or Flag-DDX46 as analyte; lysis buffer (20 mM HEPES-KOH pH 7.9, 150 mM NaCl, 1.5 mM MgCl2, 0.05% NP-40); about 100 s association, 100 s dissociation; 1:1 model; apparent constants. Conditions: both partners purified.

T1 sequence (O75533 454-1304, chain 1 of 4): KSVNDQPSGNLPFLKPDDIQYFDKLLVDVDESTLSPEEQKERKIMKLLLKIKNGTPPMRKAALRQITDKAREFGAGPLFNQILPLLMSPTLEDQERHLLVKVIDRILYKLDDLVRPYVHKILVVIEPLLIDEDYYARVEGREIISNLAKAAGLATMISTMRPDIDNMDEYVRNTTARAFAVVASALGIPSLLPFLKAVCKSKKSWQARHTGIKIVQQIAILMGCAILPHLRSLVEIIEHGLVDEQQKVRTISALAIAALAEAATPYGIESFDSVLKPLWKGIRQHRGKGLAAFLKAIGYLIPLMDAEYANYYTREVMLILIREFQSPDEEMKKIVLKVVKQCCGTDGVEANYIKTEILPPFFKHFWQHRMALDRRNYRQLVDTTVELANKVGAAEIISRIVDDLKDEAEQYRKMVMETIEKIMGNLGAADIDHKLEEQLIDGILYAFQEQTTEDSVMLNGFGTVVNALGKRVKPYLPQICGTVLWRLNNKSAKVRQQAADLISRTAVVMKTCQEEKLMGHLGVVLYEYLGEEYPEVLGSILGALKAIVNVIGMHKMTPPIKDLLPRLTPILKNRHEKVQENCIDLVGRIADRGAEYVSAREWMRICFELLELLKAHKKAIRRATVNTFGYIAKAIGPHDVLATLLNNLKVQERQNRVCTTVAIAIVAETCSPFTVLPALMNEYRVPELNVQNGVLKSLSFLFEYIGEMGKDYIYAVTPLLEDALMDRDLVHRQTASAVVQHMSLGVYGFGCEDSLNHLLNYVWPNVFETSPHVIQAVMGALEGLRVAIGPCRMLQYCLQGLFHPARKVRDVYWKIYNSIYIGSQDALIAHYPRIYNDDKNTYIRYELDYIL
T1 sequence (Q15393 whole entry, chain 2 of 4, the tested form may be a part): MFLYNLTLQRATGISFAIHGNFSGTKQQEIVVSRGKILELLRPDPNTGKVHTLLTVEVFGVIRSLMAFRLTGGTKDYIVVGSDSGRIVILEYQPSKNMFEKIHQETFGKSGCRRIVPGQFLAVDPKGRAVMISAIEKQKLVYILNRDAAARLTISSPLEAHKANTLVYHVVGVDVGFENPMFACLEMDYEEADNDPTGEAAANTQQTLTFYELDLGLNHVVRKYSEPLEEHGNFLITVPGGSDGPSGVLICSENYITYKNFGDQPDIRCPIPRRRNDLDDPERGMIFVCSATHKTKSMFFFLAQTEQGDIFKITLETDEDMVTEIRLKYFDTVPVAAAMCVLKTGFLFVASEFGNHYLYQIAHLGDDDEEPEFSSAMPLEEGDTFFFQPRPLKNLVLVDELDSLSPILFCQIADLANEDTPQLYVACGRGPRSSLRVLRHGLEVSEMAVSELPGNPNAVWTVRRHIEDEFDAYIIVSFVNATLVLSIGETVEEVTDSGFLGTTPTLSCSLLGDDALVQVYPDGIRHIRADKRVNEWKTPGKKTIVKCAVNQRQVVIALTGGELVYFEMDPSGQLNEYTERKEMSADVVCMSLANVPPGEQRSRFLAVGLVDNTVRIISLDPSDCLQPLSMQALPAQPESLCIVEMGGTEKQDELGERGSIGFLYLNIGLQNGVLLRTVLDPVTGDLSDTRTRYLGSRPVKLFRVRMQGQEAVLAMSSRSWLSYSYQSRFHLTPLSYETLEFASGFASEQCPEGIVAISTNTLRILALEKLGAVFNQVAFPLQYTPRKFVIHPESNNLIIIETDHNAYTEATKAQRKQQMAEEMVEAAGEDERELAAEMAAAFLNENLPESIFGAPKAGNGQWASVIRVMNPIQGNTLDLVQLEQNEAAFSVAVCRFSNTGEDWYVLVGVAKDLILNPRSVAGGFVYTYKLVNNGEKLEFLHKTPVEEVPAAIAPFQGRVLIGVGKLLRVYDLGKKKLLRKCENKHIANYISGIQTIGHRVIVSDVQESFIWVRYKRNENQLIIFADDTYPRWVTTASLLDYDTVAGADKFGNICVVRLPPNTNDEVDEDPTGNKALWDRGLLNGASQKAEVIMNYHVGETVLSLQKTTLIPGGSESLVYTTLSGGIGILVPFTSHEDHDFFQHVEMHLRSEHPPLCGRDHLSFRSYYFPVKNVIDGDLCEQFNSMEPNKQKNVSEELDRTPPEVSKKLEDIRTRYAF
T1 sequence (Q9BWJ5 whole entry, chain 3 of 4, the tested form may be a part): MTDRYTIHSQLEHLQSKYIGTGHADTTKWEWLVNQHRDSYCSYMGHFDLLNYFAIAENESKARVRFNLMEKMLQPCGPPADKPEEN
T1 sequence (Q7RTV0 whole entry, chain 4 of 4, the tested form may be a part): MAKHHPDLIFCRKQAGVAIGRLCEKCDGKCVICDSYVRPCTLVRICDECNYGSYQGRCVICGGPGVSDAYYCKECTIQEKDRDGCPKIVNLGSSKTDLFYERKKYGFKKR

B1: Flag-DDX46 (natural protein)
chain: MGRESRHYRKRSASRGRSGSRSRSRSPSDKRSKRGDDRRSRSRDRDRRRERSRSRDKRRSRSRDRKRLRRSRSRERDRSRERRRSRSRDRRRSRSRSRGRRSRSSSPGNKSKKTENRSRSKEKTDGGESSKEKKKDKDDKEDEKEKDAGNFDQNKLEEEMRKRKERVEKWREEQRKKAMENIGELKKEIEEMKQGKKWSLEDDDDDEDDPAEAEKEGNEMEGEELDPLDAYMEEVKEEVKKFNMRSVKGGGGNEKKSGPTVTKVVTVVTTKKAVVDSDKKKGELMENDQDAMEYSSEEEEVDLQTALTGYQTKQRKLLEPVDHGKIEYEPFRKNFYVEVPELAKMSQEEVNVFRLEMEGITVKGKGCPKPIKSWVQCGISMKILNSLKKHGYEKPTPIQTQAIPAIMSGRDLIGIAKTGSGKTIAFLLPMFRHIMDQRSLEEGEGPIAVIMTPTRELALQITKECKKFSKTLGLRVVCVYGGTGISEQIAELKRGAEIIVCTPGRMIDMLAANSGRVTNLRRVTYVVLDEADRMFDMGFEPQVMRIVDNVRPDRQTVMFSATFPRAMEALARRILSKPIEVQVGGRSVVCSDVEQQVIVIEEEKKFLKLLELLGHYQESGSVIIFVDKQEHADGLLKDLMRASYPCMSLHGGIDQYDRDSIINDFKNGTCKLLVATSVAARGLDVKHLILVVNYSCPNHYEDYVHRAGRTGRAGNKGYAYTFITEDQARYAGDIIKALELSGTAVPPDLEKLWSDFKDQQKAEGKIIKKSSGFSGKGFKFDETEQALANERKKLQKAALGLQDSDDEDAAVDIDEQIESMFNSKKRVKDMAAPGTSSVPAPTAGNAEKLEIAKRLALRINAQKNLGIESQDVMQQATNAILRGGTILAPTVSAKTIAEQLAEKINAKLNYVPLEKQEEERQDGGQNESFKRYEEELEINDFPQTARWKVTSKEALQRISEYSEAAITIRGTYFPPGKEPKEGERKIYLAIESANELAVQKAKAEITRLIKEELIRLQNSYQPTNKGRYKVL
notes: DDX46, human; source: HEK293F, overexpressed, purified (anti-Flag M2, Hitrap Heparin)
Consider B1, for which the Kd was 66 nM.

B2: Flag-DDX42 (full-length) (natural protein)
chain: MNWNKGGPGTKRGFGFGGFAISAGKKEEPKLPQQSHSAFGATSSSSGFGKSAPPQLPSFYKIGSKRANFDEENAYFEDEEEDSSNVDLPYIPAENSPTRQQFHSKPVDSDSDDDPLEAFMAEVEDQAARDMKRLEEKDKERKNVKGIRDDIEEEDDQEAYFRYMAENPTAGVVQEEEEDNLEYDSDGNPIAPTKKIIDPLPPIDHSEIDYPPFEKNFYNEHEEITNLTPQQLIDLRHKLNLRVSGAAPPRPGSSFAHFGFDEQLMHQIRKSEYTQPTPIQCQGVPVALSGRDMIGIAKTGSGKTAAFIWPMLIHIMDQKELEPGDGPIAVIVCPTRELCQQIHAECKRFGKAYNLRSVAVYGGGSMWEQAKALQEGAEIVVCTPGRLIDHVKKKATNLQRVSYLVFDEADRMFDMGFEYQVRSIASHVRPDRQTLLFSATFRKKIEKLARDILIDPIRVVQGDIGEANEDVTQIVEILHSGPSKWNWLTRRLVEFTSSGSVLLFVTKKANAEELANNLKQEGHNLGLLHGDMDQSERNKVISDFKKKDIPVLVATDVAARGLDIPSIKTVINYDVARDIDTHTHRIGRTGRAGEKGVAYTLLTPKDSNFAGDLVRNLEGANQHVSKELLDLAMQNAWFRKSRFKGGKGKKLNIGGGGLGYRERPGLGSENMDRGNNNVMSNYEAYKPSTGAMGDRLTAMKAAFQSQYKSHFVAASLSNQKAGSSAAGASGWTSAGSLNSVPTNSAQQGHNSPDSPVTSAAKGIPGFGNTGNISGAPVTYPSAGAQGVNNTASGNNSREGTGGSNGKRERYTENRGSSRHSHGETGNRHSDSPRHGDGGRHGDGYRHPESSSRHTDGHRHGENRHGGSAGRHGENRGANDGRNGESRKEAFNRESKMEPKMEPKVDSSKMDKVDSKTDKTADGFAVPEPPKRKKSRWDS
notes: DDX42, human, full-length cDNA; N-plug residues 69-81, helix alpha-3 114-135, helices alpha-2/alpha-1 145-167, helicase domain 207-643; source: HEK293F, transfected (pCAG): co-expressed with the SF3b core; alone as bait in lysate; not shown: Flag, N-terminal, kept
For the molecule B2, the Kd is 23 nM.
